From patent US11680110B2, “Three-dimensional structure-based humanization method” (Hoffmann-La Roche Inc., dated 2023) come the findings set out here.

For experiment [1], the target named is T1, recombinant human IL-17 (human, UniProt Q16552).
T1 sequence: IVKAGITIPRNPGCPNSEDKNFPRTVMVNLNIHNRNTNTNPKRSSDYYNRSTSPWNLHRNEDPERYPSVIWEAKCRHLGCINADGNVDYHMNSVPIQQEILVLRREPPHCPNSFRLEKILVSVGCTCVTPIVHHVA

For experiment [2], the target named is T1, recombinant human IL-17. As to the kind of experiment: SPR, BIAcore 3000, antibody captured, antigen injected. Background: In SPR one partner is held on a chip, and binding of the other changes the refractive index at the surface.
For experiment [3], the target named is T1, recombinant human IL-17. Put plainly: SPR, BIAcore 3000, antibody captured by anti-human IgG, antigen injected.

B1: murine anti-IL17 antibody (antibody, V domains shown)
VH: QVQLKESGPGLVAPSQSLSITCTVSGFSLDSYGVHWVRQPPGKGLEWLVVIWSDGTTTYNSALKSRLSITKDNSKSQVFLKMNSLQTDDTAIYYCARDTHYRLYYYAMDYWGQGTSVTVSS
VL: DVVMTQTPLSLPVSLGDQASISCRSSQSLVHSNGDTYFHWYLQKPGQSPKLLIYKVSNRFSGVPDRFSGSGSGTDFTLKINRVEAEDLGVYFCSQTTHAPFTFGSGTKLEIK
For B1, the Neutralization in NHDF, IL-6 IC50 with recombinant human IL-17 [1] was 0.21 nM. Besides, the Kd with recombinant human IL-17 [2] stood at 0.05 nM.

B2: chimeric anti-IL17 antibody (antibody, V domains shown)
VH: B1 VH
VL: B1 VL
Turning to B2, in the experiment with recombinant human IL-17 [3], the dissociation constant (Kd) was determined as 0.03 nM.

As usually defined, the Kd is the equilibrium constant for the complex coming apart.
